Source: article doi:10.1101/2020.11.27.401935

Tests used:
[1] = biological target: S. cerevisiae CIII2CIV1/2 respiratory supercomplex (S. cerevisiae (endogenous in strain BY 4741)) (UniProt P07143); test: cryo-EM structure
[2] = biological target: S. cerevisiae cytochrome c oxidase (complex IV), CIV (S. cerevisiae (endogenous in strain BY 4741)) (UniProt P00427); test: cryo-EM structure
[3] = biological target: S. cerevisiae cytochrome c oxidase (complex IV), CIV (S. cerevisiae (endogenous in strain BY 4741)) (UniProt P00427)

Chain of UniProt P00427 (P00427 whole entry, looked up, one chain of several): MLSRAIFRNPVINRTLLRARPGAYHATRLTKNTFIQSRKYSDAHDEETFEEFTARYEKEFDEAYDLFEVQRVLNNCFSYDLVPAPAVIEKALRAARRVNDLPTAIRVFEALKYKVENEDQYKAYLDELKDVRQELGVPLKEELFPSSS
Chain of UniProt P07143 (P07143 whole entry, looked up, one chain of several): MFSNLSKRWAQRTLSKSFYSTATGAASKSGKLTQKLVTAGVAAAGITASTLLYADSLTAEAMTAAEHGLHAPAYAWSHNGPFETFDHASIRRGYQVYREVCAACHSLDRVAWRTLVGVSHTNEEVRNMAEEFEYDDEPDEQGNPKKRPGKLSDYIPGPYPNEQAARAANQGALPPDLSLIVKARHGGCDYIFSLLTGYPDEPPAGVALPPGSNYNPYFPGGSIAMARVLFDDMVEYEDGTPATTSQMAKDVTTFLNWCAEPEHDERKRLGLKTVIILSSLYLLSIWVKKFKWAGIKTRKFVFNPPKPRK

“S. cerevisiae cytochrome c (isoform-1 cyt. c) (from UniProt P00044 1-109) (natural protein)” gave a stoichiometry N [1] of 1, a cyt. c occupancy from integrated density (map with cyt. c at CIV) [2] of 1 and a percent of particle images with cyt. c bound at CIV [2] of 33%. It also gave a cyt. c:O2 oxidoreductase activity of isolated CIV at a cyt. c:CIV ratio of one [3] of 3 e^-/s.
